Results reported in patent publication US20210122824A1 (ADAGENE, published 2021).

Target: T1, human PD-L1-Fc fusion protein (Sino Biological Cat #10084-H02H) (human, UniProt Q9NZQ7 19-239)
T1 construct: bought; not shown: Fc part of the bought fusion
Experiment: BLI (ForteBio), PD-L1-Fc on AHC sensor, Fab in solution

T1 sequence (Q9NZQ7 19-239 limits assumed): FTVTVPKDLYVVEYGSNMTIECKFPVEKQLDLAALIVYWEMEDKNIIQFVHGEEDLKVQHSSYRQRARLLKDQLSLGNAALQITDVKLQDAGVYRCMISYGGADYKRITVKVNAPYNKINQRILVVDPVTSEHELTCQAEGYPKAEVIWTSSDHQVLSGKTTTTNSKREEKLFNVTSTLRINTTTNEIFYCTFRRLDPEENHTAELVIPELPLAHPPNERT

Binder | Kd [pM]
B13002 (Fab, V domains shown, Fab from E. coli) VH: EVQLVESGGGLVQPGGSLRLSCAASGYTFSNYGIHWVRQAPGKGLEWIGWIYPSGGGTKYAQKFQGRVTISRDNSKNTLYLQLNSLRAEDTAVYYCAREGGGYGYALDYWGQGTLVTVSS VL: DIQLTQSPSSLSASVGDRVTITCRASQGVSSYLAWYQQKPGKAPKLLIYDASNLETGVPSRFSGSGSGTDFTLTISSLQPEDFATYYCQQYDAWPYTFGQGTKVEIKR | 251
B14622 (Fab, V domains shown, Fab from E. coli) VH: EVQLVESGGGLVQPGGSLRLSCAASGYTFSNYGIHWVRQAPGKGLEWIGWIYPSGGGTKYAQKFQGRVTISRDNSKNTLYLQLNSLRAEDTAVYYCAREGGGYGYALDYWGQGTLVTVSS VL: DIQLTQSPSSLSASVGDRVTITCRASQSVDFYGKSFLDWYQQKPGKAPKLLIYDASNRATGIPSRFSGSGSGTDFTLTISSLQPEDFATYYCQQYDSWPYTFGQGTKVEIKR | 274
B13004 (Fab, V domains shown, Fab from E. coli) VH: EVQLVESGGGLVQPGGSLRLSCAASGYTFSNYGIHWVRQAPGKGLEWIGWIYPSGGGTKYAQKFQGRVTISRDNSKNTLYLQLNSLRAEDTAVYYCAREGGGYGYALDYWGQGTLVTVSS VL: DIQLTQSPSSLSASVGDRVTITCRASQGISPWLAWYQQKPGKAPKLLIYDASNRATGIPSRFSGSGSGTDFTLTISSLQPEDFATYYCQQYDSWPYTFGQGTKVEIKR | 300
B14665 (Fab, V domains shown, Fab from E. coli) VH: EVQLVESGGGLVQPGGSLRLSCAASGYTFSNYGIHWVRQAPGKGLEWIGWIYPSGGGTKYAQKFQGRVTISRDNSKNTLYLQLNSLRAEDTAVYYCAREGGGYGYALDYWGQGTLVTVSS VL: DIQLTQSPSSLSASVGDRVTITCRASQSVDFYGKSFLAWYQQKPGKAPKLLIYDASSLESGVPSRFSGSGSGTDFTLTISSLQPEDFATYYCQQYDSWPYTFGQGTKVEIKR | 369
B14614 (Fab, V domains shown, Fab from E. coli) VH: EVQLVESGGGLVQPGGSLRLSCAASGYTFSNYGIHWVRQAPGKGLEWIGWIYPSGGGTKYAQKFQGRVTISRDNSKNTLYLQLNSLRAEDTAVYYCAREGGGYGYALDYWGQGTLVTVSS VL: DIQLTQSPSSLSASVGDRVTITCRASESVDFYGKSFLDWYQQKPGKAPKLLIYDASNRATGIPSRFSGSGSGTDFTLTISSLQPEDFATYYCQQYDSWPYTFGQGTKVEIKR | 353
B14033 (Fab, V domains shown, Fab from E. coli) VH: EVQLVESGGGLVQPGGSLRLSCAASGYTFSNYGIHWVRQAPGKGLEWIGWIYPSGGGTKYAQKFQGRVTISRDNSKNTLYLQLNSLRAEDTAVYYCAREGGGYGYALDYWGQGTLVTVSS VL: DIQLTQSPSSLSASVGDRVTITCRASQGIGSFLAWYQQKPGKAPKLLIYDASSLESGVPSRFSGSGSGTDFTLTISSLQPEDFATYYCQQYDYWPYTFGQGTKVEIKR | 875
B14617 (Fab, V domains shown, Fab from E. coli) VH: EVQLVESGGGLVQPGGSLRLSCAASGYTFSNYGIHWVRQAPGKGLEWIGWIYPSGGGTKYAQKFQGRVTISRDNSKNTLYLQLNSLRAEDTAVYYCAREGGGYGYALDYWGQGTLVTVSS VL: DIQLTQSPSSLSASVGDRVTITCRASESVDFFGKSFLAWYQQKPGKAPKLLIYDASSLESGVPSRFSGSGSGTDFTLTISSLQPEDFATYYCQQYDSWPYTFGQGTKVEIKR | 288
B14645 (Fab, V domains shown, Fab from E. coli) VH: EVQLVESGGGLVQPGGSLRLSCAASGYTFSNYGIHWVRQAPGKGLEWIGWIYPSGGGTKYAQKFQGRVTISRDNSKNTLYLQLNSLRAEDTAVYYCAREGGGYGYALDYWGQGTLVTVSS VL: DIQLTQSPSSLSASVGDRVTITCRASQSVDFYGKSFLDWYQQKPGKAPKLLIYDASNLETGVPSRFSGSGSGTDFTLTISSLQPEDFATYYCQQYDAWPYTFGQGTKVEIKR | 296
B14633 (Fab, V domains shown, Fab from E. coli) VH: EVQLVESGGGLVQPGGSLRLSCAASGYTFSNYGIHWVRQAPGKGLEWIGWIYPSGGGTKYAQKFQGRVTISRDNSKNTLYLQLNSLRAEDTAVYYCAREGGGYGYALDYWGQGTLVTVSS VL: DIQLTQSPSSLSASVGDRVTITCRASESVDFHGISFLAWYQQKPGKAPKLLIYDASNRATGIPSRFSGSGSGTDFTLTISSLQPEDFATYYCQQYDHWPYTFGQGTKVEIKR | 322
B14652 (Fab, V domains shown, Fab from E. coli) VH: EVQLVESGGGLVQPGGSLRLSCAASGYTFSNYGIHWVRQAPGKGLEWIGWIYPSGGGTKYAQKFQGRVTISRDNSKNTLYLQLNSLRAEDTAVYYCAREGGGYGYALDYWGQGTLVTVSS VL: DIQLTQSPSSLSASVGDRVTITCRASQGVSPWLAWYQQKPGKAPKLLIYDASSLESGVPSRFSGSGSGTDFTLTISSLQPEDFATYYCQQYDAWPYTFGQGTKVEIKR | 294
B14651 (Fab, V domains shown, Fab from E. coli) VH: EVQLVESGGGLVQPGGSLRLSCAASGYTFSNYGIHWVRQAPGKGLEWIGWIYPSGGGTKYAQKFQGRVTISRDNSKNTLYLQLNSLRAEDTAVYYCAREGGGYGYALDYWGQGTLVTVSS VL: DIQLTQSPSSLSASVGDRVTITCRASESVDFHGKSFLAWYQQKPGKAPKLLIYDASNRATGIPSRFSGSGSGTDFTLTISSLQPEDFATYYCQQYDHWPYTFGQGTKVEIKR | 301
B14650 (Fab, V domains shown, Fab from E. coli) VH: EVQLVESGGGLVQPGGSLRLSCAASGYTFSNYGIHWVRQAPGKGLEWIGWIYPSGGGTKYAQKFQGRVTISRDNSKNTLYLQLNSLRAEDTAVYYCAREGGGYGYALDYWGQGTLVTVSS VL: DIQLTQSPSSLSASVGDRVTITCRASESVDFYGKSFLDWYQQKPGKAPKLLIYDASNRATGIPSRFSGSGSGTDFTLTISSLQPEDFATYYCQQYDHWPYTFGQGTKVEIKR | 357
B14674 (Fab, V domains shown, Fab from E. coli) VH: EVQLVESGGGLVQPGGSLRLSCAASGYTFSNYGIHWVRQAPGKGLEWIGWIYPSGGGTKYAQKFQGRVTISRDNSKNTLYLQLNSLRAEDTAVYYCAREGGGYGYALDYWGQGTLVTVSS VL: DIQLTQSPSSLSASVGDRVTITCRASQSIEKWLAWYQQKPGKAPKLLIYDASSLESGVPSRFSGSGSGTDFTLTISSLQPEDFATYYCQQYDAWPYTFGQGTKVEIKR | 502
B13005 (Fab, V domains shown, Fab from E. coli) VH: EVQLVESGGGLVQPGGSLRLSCAASGYTFSNYGIHWVRQAPGKGLEWIGWIYPSGGGTKYAQKFQGRVTISRDNSKNTLYLQLNSLRAEDTAVYYCAREGGGYGYALDYWGQGTLVTVSS VL: DIQLTQSPSSLSASVGDRVTITCRASQSVSSYLAWYQQKPGKAPKLLIYDASNLETGVPSRFSGSGSGTDFTLTISSLQPEDFATYYCQQYDAWPYTFGQGTKVEIKR | 346

Continued by falling Kd, values first:

Kd [pM] | Binder
248 | B14644 (Fab, V domains shown, Fab from E. coli) VH: EVQLVESGGGLVQPGGSLRLSCAASGYTFSNYGIHWVRQAPGKGLEWIGWIYPSGGGTKYAQKFQGRVTISRDNSKNTLYLQLNSLRAEDTAVYYCAREGGGYGYALDYWGQGTLVTVSS VL: DIQLTQSPSSLSASVGDRVTITCRASESVDFYGKSFLAWYQQKPGKAPKLLIYDASNRATGIPSRFSGSGSGTDFTLTISSLQPEDFATYYCQQYDYWPYTFGQGTKVEIKR
232 | B14654 (Fab, V domains shown, Fab from E. coli) VH: EVQLVESGGGLVQPGGSLRLSCAASGYTFSNYGIHWVRQAPGKGLEWIGWIYPSGGGTKYAQKFQGRVTISRDNSKNTLYLQLNSLRAEDTAVYYCAREGGGYGYALDYWGQGTLVTVSS VL: DIQLTQSPSSLSASVGDRVTITCRASQSVSPYLAWYQQKPGKAPKLLIYDASNRATGIPSRFSGSGSGTDFTLTISSLQPEDFATYYCQQYDAWPYTFGQGTKVEIKR
228 | B14615 (Fab, V domains shown, Fab from E. coli) VH: EVQLVESGGGLVQPGGSLRLSCAASGYTFSNYGIHWVRQAPGKGLEWIGWIYPSGGGTKYAQKFQGRVTISRDNSKNTLYLQLNSLRAEDTAVYYCAREGGGYGYALDYWGQGTLVTVSS VL: DIQLTQSPSSLSASVGDRVTITCRASQSVDFYGKSFLAWYQQKPGKAPKLLIYDASSLESGVPSRFSGSGSGTDFTLTISSLQPEDFATYYCQQYDHWPYTFGQGTKVEIKR
207 | B14634 (Fab, V domains shown, Fab from E. coli) VH: EVQLVESGGGLVQPGGSLRLSCAASGYTFSNYGIHWVRQAPGKGLEWIGWIYPSGGGTKYAQKFQGRVTISRDNSKNTLYLQLNSLRAEDTAVYYCAREGGGYGYALDYWGQGTLVTVSS VL: DIQLTQSPSSLSASVGDRVTITCRASQSVSPYLAWYQQKPGKAPKLLIYDASNLETGVPSRFSGSGSGTDFTLTISSLQPEDFATYYCQQYDAWPYTFGQGTKVEIKR
189 | B14642 (Fab, V domains shown, Fab from E. coli) VH: EVQLVESGGGLVQPGGSLRLSCAASGYTFSNYGIHWVRQAPGKGLEWIGWIYPSGGGTKYAQKFQGRVTISRDNSKNTLYLQLNSLRAEDTAVYYCAREGGGYGYALDYWGQGTLVTVSS VL: DIQLTQSPSSLSASVGDRVTITCRASQSVDFYGKSFLAWYQQKPGKAPKLLIYDASSLESGVPSRFSGSGSGTDFTLTISSLQPEDFATYYCQQYDAWPYTFGQGTKVEIKR
183 | B14631 (Fab, V domains shown, Fab from E. coli) VH: EVQLVESGGGLVQPGGSLRLSCAASGYTFSNYGIHWVRQAPGKGLEWIGWIYPSGGGTKYAQKFQGRVTISRDNSKNTLYLQLNSLRAEDTAVYYCAREGGGYGYALDYWGQGTLVTVSS VL: DIQLTQSPSSLSASVGDRVTITCRASESVDFFGKSFLAWYQQKPGKAPKLLIYDASNLETGVPSRFSGSGSGTDFTLTISSLQPEDFATYYCQQYDHWPYTFGQGTKVEIKR
182 | B14627 (Fab, V domains shown, Fab from E. coli) VH: EVQLVESGGGLVQPGGSLRLSCAASGYTFSNYGIHWVRQAPGKGLEWIGWIYPSGGGTKYAQKFQGRVTISRDNSKNTLYLQLNSLRAEDTAVYYCAREGGGYGYALDYWGQGTLVTVSS VL: DIQLTQSPSSLSASVGDRVTITCRASQSVSSWLAWYQQKPGKAPKLLIYDASSLESGVPSRFSGSGSGTDFTLTISSLQPEDFATYYCQQYDSWPYTFGQGTKVEIKR
142 | B14658 (Fab, V domains shown, Fab from E. coli) VH: EVQLVESGGGLVQPGGSLRLSCAASGYTFSNYGIHWVRQAPGKGLEWIGWIYPSGGGTKYAQKFQGRVTISRDNSKNTLYLQLNSLRAEDTAVYYCAREGGGYGYALDYWGQGTLVTVSS VL: DIQLTQSPSSLSASVGDRVTITCRASQSVDFHGKSFLDWYQQKPGKAPKLLIYDASNRATGIPSRFSGSGSGTDFTLTISSLQPEDFATYYCQQYDSWPYTFGQGTKVEIKR
